Common to all, as to assay: co-IP, anti-FLAG, lysate of cells with C-FLAG B3GNT2; mass spectrometry
In experiment [1] the target is T1, HNRNPA2B1 (human, UniProt P22626-2 1-341).
T1 construct: also called NP_002128.1 (+1)
The procedure:
(§1) Cells were plated in 10-cm cell culture dishes and grown to 60-80% confluency. For each condition, two biological replicates were harvested for co-IP. Cells were washed with PBS and 4 mL of lysis buffer (20 mM HEPES, 1% Triton X-100, 150 mM NaCl, 1 mM EDTA, and 10% glycerol) containing protease inhibitor cocktail was added. Cells were scraped and lysate was incubated at 4° C. under rotary agitation for 1 h. Lysate was centrifuged at 14,000×g for 10 min at 4° C. Supernatant was transferred to a new tube and an aliquot was taken as the input. […] For Western blots, 10 μg/mL Chicken Anti-FLAG (Aves labs ET-DY100) and IgY control (R&D Systems AB-101-C) antibodies were biotinylated (Thermo Fisher Scientific 90407) and added to the respective conditions. Lysates with antibodies were incubated at 4° C. under rotary agitation overnight. For each mL of lysate, 50 μL of Pierce Protein A/G Magnetic Beads (Mass spectrometry; Thermo Fisher Scientific 88803) or Pierce Streptavidin Magnetic Beads (Western blot; Thermo Fisher Scientific 88817) was washed twice with lysis buffer. Lysates with antibodies were added to the beads and incubated at 4° C. under rotary agitation for 4 h. Beads were washed with lysis buffer 3 times and resuspended in lysis buffer for storage.
(§2) Magnetic beads were resuspended in 100 mM Tris pH 7.8, reduced, alkylated and digested with trypsin at 37° ° C. overnight. This solution was subjected to solid phase extraction to concentrate the peptides and remove unwanted reagents followed by injection onto a Shimadzu HPLC with fraction collector. Eight fractions were collected and after concentration were injected on a Waters NanoAcquity HPLC equipped with a self-packed Aeris 3 μm C18 analytical column 0.075 mm by 20 cm, (Phenomenex). Peptides were eluted using standard reverse-phase gradients. The effluent from the column was analyzed using a Thermo Orbitrap Elite mass spectrometer (nanospray configuration) operated in a data dependent manner for 54 minutes. The resulting fragmentation spectra were correlated against the known database using Proteome Discover 1.4 (Thermo Fisher Scientific).

Experiment [2] deals with T2, MYH11 (human, UniProt P35749-3 1-1945, limits assumed).
T2 construct: also called NP_001035202.1 (+4)
The procedure: as §1, §2

Experiment [3] has as its target T3, NUFIP2 (human, UniProt Q7Z417 1-695).
T3 construct: also called NP_065823.1
T3 sequence (looked up): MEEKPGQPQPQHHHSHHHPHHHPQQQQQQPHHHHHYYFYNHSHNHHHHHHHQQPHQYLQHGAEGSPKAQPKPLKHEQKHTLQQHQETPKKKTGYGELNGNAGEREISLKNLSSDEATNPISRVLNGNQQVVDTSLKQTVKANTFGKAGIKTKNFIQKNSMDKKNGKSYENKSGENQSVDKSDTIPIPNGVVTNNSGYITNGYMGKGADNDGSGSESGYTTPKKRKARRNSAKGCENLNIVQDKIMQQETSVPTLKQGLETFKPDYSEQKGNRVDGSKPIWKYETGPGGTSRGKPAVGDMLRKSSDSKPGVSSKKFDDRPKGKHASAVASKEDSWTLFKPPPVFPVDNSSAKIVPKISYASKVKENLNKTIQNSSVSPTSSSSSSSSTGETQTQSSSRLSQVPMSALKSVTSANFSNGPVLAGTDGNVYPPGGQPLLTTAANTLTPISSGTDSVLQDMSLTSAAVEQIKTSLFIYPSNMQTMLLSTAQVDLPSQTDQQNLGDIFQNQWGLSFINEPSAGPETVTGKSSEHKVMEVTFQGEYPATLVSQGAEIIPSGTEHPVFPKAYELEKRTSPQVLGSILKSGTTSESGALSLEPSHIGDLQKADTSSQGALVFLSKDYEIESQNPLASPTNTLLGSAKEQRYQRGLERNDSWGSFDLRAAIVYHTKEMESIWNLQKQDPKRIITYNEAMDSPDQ
The procedure: as §1, §2

Experiment [4] has as its target T4, PRBP1 (human, UniProt P26599 1-557).
T4 construct: Label 'PRBP1' is probably a misprint of PTBP1; also called NP_002810.1 (+4)
How it is done:
as §1, §2

Experiment [5] has as its target T5, ATXN2 (human, UniProt Q99700 1-1313).
T5 construct: also called NP_002964.3
The procedure:
as §1, §2

For experiment [6], the target named is T6, CAT (human, UniProt P04040 2-527).
T6 construct: also called NP_001743.1
T6 sequence (looked up): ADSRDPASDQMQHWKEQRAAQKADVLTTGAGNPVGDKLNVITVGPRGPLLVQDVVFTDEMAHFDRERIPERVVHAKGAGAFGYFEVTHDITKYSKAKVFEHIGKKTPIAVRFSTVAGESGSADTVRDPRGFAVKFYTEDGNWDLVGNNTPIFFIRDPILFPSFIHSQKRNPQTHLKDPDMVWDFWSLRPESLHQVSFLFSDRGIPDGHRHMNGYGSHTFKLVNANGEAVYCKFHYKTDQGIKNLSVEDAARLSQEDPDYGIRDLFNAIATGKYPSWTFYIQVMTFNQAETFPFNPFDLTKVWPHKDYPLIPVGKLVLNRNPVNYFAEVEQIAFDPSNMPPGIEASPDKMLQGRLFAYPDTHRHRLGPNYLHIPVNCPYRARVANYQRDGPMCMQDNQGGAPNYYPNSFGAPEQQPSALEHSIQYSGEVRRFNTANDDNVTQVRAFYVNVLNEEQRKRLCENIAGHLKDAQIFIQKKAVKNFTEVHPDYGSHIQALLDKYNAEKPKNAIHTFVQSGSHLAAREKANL
The procedure:
as §1, §2

T5 sequence (Q99700 whole entry): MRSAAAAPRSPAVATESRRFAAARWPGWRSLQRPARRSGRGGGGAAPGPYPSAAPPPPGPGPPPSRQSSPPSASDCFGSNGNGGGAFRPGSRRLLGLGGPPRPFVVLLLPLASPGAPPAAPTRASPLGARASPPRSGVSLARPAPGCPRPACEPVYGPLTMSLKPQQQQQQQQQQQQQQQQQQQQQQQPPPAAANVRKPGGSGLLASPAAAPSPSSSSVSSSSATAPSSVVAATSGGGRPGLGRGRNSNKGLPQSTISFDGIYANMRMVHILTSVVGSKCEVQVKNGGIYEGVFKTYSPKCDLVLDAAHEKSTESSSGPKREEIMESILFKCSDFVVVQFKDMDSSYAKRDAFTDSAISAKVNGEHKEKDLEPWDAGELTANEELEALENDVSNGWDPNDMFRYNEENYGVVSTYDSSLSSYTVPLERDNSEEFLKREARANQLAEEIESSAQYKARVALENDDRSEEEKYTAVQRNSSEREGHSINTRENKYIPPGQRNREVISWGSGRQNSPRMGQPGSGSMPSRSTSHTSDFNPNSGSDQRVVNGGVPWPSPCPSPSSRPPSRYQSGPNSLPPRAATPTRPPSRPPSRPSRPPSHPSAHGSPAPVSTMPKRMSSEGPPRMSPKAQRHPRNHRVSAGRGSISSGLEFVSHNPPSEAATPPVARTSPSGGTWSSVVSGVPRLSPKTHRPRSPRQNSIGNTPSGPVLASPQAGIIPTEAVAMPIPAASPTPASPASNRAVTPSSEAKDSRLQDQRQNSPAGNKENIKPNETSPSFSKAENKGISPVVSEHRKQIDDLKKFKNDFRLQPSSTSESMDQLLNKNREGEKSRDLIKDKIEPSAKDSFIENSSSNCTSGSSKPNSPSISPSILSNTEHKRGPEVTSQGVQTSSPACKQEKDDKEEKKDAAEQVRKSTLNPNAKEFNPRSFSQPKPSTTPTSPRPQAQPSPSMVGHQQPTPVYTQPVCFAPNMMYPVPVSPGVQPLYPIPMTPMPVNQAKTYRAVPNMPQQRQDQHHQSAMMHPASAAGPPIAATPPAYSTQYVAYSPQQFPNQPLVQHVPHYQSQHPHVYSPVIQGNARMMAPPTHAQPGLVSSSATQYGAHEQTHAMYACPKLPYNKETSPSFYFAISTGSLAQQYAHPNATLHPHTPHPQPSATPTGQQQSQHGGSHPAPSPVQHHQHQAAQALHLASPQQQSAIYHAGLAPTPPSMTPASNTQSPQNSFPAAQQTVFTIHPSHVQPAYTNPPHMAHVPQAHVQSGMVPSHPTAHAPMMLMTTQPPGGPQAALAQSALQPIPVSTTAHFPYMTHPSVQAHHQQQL
T1 sequence (P22626 other isoform, or with tags, fused parts or gaps limits assumed): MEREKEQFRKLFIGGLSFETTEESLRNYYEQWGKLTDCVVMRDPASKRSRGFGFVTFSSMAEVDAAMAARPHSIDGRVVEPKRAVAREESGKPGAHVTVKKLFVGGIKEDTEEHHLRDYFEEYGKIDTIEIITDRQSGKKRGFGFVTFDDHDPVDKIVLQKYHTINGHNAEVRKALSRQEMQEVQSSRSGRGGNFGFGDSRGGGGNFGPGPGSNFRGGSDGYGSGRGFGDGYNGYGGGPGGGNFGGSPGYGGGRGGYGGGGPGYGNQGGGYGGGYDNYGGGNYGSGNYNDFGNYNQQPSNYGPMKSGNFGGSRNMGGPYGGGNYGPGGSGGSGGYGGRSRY
T2 sequence (P35749 other isoform, or with tags, fused parts or gaps limits assumed): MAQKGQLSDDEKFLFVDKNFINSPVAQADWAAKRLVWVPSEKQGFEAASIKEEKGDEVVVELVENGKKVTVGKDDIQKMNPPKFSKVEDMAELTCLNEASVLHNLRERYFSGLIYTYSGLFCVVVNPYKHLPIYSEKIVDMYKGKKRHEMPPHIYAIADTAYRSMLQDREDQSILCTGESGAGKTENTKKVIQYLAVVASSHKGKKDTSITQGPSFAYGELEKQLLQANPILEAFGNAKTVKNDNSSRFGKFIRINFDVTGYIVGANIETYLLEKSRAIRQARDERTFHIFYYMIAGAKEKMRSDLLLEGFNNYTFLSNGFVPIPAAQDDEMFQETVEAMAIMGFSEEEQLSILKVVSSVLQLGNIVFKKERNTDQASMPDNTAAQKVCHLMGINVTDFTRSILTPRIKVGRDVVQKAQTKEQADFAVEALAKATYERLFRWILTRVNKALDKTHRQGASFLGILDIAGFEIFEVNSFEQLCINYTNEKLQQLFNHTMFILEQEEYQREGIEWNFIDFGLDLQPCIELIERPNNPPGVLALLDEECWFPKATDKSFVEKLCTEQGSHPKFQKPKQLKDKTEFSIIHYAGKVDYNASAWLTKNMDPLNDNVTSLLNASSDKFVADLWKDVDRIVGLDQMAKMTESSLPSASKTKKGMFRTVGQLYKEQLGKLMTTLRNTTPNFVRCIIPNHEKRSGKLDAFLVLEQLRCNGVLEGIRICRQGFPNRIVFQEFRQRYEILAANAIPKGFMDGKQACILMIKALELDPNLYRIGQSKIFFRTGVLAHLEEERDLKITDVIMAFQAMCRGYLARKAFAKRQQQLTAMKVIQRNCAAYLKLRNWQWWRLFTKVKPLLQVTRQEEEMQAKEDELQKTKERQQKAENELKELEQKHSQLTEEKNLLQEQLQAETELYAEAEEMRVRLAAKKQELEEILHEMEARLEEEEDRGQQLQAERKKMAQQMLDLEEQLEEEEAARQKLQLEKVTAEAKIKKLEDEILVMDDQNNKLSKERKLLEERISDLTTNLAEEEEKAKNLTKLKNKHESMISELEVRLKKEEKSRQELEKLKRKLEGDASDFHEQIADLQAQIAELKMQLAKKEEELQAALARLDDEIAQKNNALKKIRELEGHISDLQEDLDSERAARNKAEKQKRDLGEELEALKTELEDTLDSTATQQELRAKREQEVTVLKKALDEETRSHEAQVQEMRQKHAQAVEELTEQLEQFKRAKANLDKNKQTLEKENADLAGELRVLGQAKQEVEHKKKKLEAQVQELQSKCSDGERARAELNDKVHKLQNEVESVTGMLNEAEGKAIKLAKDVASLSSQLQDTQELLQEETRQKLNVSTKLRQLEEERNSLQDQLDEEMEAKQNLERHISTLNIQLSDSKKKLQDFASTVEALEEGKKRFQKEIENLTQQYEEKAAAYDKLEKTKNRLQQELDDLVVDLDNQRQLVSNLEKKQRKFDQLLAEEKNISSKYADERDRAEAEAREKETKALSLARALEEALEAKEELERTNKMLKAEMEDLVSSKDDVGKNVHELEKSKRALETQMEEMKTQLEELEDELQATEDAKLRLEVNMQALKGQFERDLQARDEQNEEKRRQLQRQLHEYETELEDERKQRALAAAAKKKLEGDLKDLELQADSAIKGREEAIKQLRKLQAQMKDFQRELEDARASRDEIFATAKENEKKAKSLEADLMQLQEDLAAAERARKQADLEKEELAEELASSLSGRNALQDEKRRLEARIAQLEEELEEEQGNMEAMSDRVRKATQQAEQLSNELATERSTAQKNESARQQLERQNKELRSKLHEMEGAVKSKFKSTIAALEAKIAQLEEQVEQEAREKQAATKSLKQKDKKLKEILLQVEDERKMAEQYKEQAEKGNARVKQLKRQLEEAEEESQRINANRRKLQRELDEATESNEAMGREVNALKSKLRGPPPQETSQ
T4 sequence (P26599 whole entry): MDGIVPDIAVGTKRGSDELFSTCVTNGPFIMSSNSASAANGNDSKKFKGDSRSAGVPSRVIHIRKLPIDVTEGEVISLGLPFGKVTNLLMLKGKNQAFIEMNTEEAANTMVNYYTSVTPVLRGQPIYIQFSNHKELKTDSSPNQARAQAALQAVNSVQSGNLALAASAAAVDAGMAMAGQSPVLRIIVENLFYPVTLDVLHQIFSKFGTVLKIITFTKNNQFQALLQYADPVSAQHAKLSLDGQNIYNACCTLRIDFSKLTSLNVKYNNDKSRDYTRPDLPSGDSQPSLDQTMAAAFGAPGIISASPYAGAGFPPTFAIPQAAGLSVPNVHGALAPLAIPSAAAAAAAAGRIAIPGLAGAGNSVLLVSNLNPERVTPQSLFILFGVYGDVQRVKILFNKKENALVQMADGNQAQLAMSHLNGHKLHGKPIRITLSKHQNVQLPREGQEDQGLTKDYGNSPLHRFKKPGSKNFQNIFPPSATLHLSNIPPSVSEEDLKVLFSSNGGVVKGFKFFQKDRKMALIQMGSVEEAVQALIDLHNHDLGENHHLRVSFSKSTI

B1: C-terminal FLAG tagged B3GNT2 (enzyme, human, UniProt Q9NY97 1-397, looked up)
chain: MSVGRRRIKLLGILMMANVFIYFIMEVSKSSSQEKNGKGEVIIPKEKFWKISTPPEAYWNREQEKLNRQYNPILSMLTNQTGEAGRLSNISHLNYCEPDLRVTSVVTGFNNLPDRFKDFLLYLRCRNYSLLIDQPDKCAKKPFLLLAIKSLTPHFARRQAIRESWGQESNAGNQTVVRVFLLGQTPPEDNHPDLSDMLKFESEKHQDILMWNYRDTFFNLSLKEVLFLRWVSTSCPDTEFVFKGDDDVFVNTHHILNYLNSLSKTKAKDLFIGDVIHNAGPHRDKKLKYYIPEVVYSGLYPPYAGGGGFLYSGHLALRLYHITDQVHLYPIDDVYTGMCLQKLGLVPEKHKGFRTFDIEEKNKNNICSYVDLMLVHSRKPQEMIDIWSQLQSAHLKC
notes: Overexpressed in cells and pulled down from the lysate with mouse anti-FLAG antibody; also called C-FLAG B3GNT2; C-term flag; not shown: C-terminal FLAG tag
In the case of B1, the “co-IP mass spectrometry count” value in experiment [1] worked out at 8; in experiment [2] it was 7; in experiment [3], 5; in experiment [4] it was 9; in experiment [5] it was 3; in experiment [6], 0.

Source of the values: US20240261333A1 (published 2024).
